From US20200199212A1 (Eli Lilly, published 2020)

T1: LPL on LPL-expressing cells (Example 1)
T1 sequence (P06858 28-475, species assumed, looked up): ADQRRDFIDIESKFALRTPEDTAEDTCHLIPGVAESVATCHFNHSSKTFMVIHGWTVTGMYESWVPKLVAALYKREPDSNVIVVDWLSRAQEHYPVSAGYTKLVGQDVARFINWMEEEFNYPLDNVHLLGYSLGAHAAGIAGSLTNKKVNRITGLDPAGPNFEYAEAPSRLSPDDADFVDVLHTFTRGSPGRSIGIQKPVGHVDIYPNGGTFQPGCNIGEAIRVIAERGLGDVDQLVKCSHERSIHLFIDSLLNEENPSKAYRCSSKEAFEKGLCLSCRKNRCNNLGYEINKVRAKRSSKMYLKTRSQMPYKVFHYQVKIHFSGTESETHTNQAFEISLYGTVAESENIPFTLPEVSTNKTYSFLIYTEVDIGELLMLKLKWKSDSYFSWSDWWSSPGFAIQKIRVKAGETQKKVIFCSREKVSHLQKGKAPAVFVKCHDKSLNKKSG


Biological target: T1, LPL on LPL-expressing cells (Example 1)
Assay: cell-based or functional assay

| Binder | EC50 in the LPL assay (inhibition of LPL) [nM] |
| --- | --- |
| human ANGPTL3/8 complex (other) chain 1: SRIDQDNSSFDSLSPEPKSRFAMLDDVKILANGLLQLGHGLKDFVHKTKGQINDIFQKLNIFDQSFYDLSLQTSEIKEEEKELRRTTYKLQVKNEEVKNMSLELNSKLESLLEEKILLQQKVKYLEEQLTNLIQNQPETPEHPEVTSLKTFVEKQDNSIKDLLQTVEDQYKQLNQQHSQIKEIENQLRRTSIQEPTEISLSSKPRAPRTTPFLQLNEIRNVKHDGIPAECTTIYNRGEHTSGMYAIRPSNSQVFHVYCDVISGSPWTLIQHRIDGSQNFNETWENYKYGFGRLDGEFWLGLEKIYSIVKQSNYVLRIELEDWKDNKHYIEYSFYLGNHETNYTLHLVAITGNVPNAIPENKDLVFSTWDHKAKGHFNCPEGYSGGWWWHDECGENNLNGKYNKPRAKSKPERRRGLSWKSQNGRLYSIKSTKMLIHPTDSESFEAAADYKDDDDK chain 2: APMGGPELAQHEELTLLFHGTLQLGQALNGVYRTTEGRLTKARNSLGLYGRTIELLGQEVSRGRDAAQELRASLLETQMEEDILQLQAEATAEVLGEVAQAQKVLRDSVQRLEVQLRSAWLGPAYREFEVLKAHADKQSHILWALTGHVQRQRREMVAQQHRLRQIQERLHTAALPA | 0.54 |
| human ANGPTL3 (ligand) SRIDQDNSSFDSLSPEPKSRFAMLDDVKILANGLLQLGHGLKDFVHKTKGQINDIFQKLNIFDQSFYDLSLQTSEIKEEEKELRRTTYKLQVKNEEVKNMSLELNSKLESLLEEKILLQQKVKYLEEQLTNLIQNQPETPEHPEVTSLKTFVEKQDNSIKDLLQTVEDQYKQLNQQHSQIKEIENQLRRTSIQEPTEISLSSKPRAPRTTPFLQLNEIRNVKHDGIPAECTTIYNRGEHTSGMYAIRPSNSQVFHVYCDVISGSPWTLIQHRIDGSQNFNETWENYKYGFGRLDGEFWLGLEKIYSIVKQSNYVLRIELEDWKDNKHYIEYSFYLGNHETNYTLHLVAITGNVPNAIPENKDLVFSTWDHKAKGHFNCPEGYSGGWWWHDECGENNLNGKYNKPRAKSKPERRRGLSWKSQNGRLYSIKSTKMLIHPTDSESFE | 21.5 |
